In US11472875:

Key:
CM1-CM2 substrate 2003 = molecular target: T1, CM1-CM2 substrate 2003
T1 chain: ISSGLLSGRSANPRG

CM1-CM2 substrate 2005 = molecular target: T2, CM1-CM2 substrate 2005
T2 chain: AVGLLAPPSGRSANPRG

[1] = molecular target: anti-EGFR activatable antibodies comprising substrates 2001, 2006-2010 and 2012

B1: human matriptase (protein)
chain: GSDEKDCDCGLRSFTRQARVVGGTDADEGEWPWQVSLHALGQGHICGASLISPNWLVSAAHCYIDDRGFRYSDPTQWTAFLGLHDQSQRSAPGVQERRLKRIISHPFFNDFTFDYDIALLELEKPAEYSSMVRPICLPDASHVFPAGKAIWVTGWGHTQYGGTGALILQKGEIRVINQTTCENLLPQQITPRMMCVGFLSGGVDSCQGDSGGPLSSVEADGRIFQAGVVSWGDGCAQRNKPGVYTRLPLFRDWIKENTGV
B1 was tested, and the “cleavage kinetics, fold increase as compared to substrate 2001” value (CM1-CM2 substrate 2003) was “approximately a 50-fold increase”, the “cleavage kinetics, fold increase as compared to substrate 1004/LP′/0001” value (CM1-CM2 substrate 2005) was “approximately a 50-fold increase” and the kcat/Km [1] was “a range of kcat/Km values ranging from 6E+02 to 2E+04”.
